Measured values: patent US20080199426A1 (BETH ISRAEL DEACONESS MEDICAL CENTER, published 2008)

Legend:
[1] = target: T1, thrombin-activated EphA2 (endogenous, from lysate of HUVECs stimulated with 1 U/ml thrombin for 5 mins) (human, UniProt P29317 24-976, tyrosine phosphorylated after thrombin stimulation (sites not given)); test: SH2 domain array with thrombin-stimulated HUVEC lysate, anti-human EphA2 detection
T1 construct: Endogenous EphA2 in a HUVEC lysate, detected on the array with a biotinylated anti-human EphA2 antibody; No signal peptide limits are stated
T1 sequence (P29317 24-976 limits assumed): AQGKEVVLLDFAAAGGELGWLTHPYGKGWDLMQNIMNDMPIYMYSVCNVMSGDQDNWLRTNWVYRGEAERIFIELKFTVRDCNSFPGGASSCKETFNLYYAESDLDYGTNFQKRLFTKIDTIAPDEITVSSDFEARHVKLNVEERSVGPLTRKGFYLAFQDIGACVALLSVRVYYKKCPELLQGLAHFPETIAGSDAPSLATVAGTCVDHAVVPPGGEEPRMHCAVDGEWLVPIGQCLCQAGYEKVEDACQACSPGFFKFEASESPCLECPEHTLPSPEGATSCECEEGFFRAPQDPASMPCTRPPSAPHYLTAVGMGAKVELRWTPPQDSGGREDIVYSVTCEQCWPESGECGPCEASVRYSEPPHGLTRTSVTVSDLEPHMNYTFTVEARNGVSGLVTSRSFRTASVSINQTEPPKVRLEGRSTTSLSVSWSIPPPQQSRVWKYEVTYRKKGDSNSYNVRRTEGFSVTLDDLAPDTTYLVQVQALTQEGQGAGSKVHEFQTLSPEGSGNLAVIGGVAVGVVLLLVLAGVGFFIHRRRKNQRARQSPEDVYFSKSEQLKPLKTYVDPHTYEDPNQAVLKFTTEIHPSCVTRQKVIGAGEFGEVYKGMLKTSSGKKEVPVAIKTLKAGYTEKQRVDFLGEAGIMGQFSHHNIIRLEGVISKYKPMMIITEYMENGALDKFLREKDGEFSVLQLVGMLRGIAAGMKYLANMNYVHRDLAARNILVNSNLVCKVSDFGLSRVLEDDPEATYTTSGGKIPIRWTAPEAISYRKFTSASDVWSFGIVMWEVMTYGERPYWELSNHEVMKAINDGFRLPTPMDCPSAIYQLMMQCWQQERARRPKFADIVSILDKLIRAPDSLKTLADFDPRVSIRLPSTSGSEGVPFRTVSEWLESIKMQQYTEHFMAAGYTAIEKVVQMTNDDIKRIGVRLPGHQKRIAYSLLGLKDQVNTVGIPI
Experimental: (§1) Methods: We used a phosphotyrosine profiling array to identify signaling pathways linked to EphA2 activation by thrombin. HUVECs were prepared and stimulated with 1 U/ml thrombin for 5 mins. TranSignal Phosphotyrosine Profiling Array (Panomics) was used according to the manufacturer's protocol, except that a biotinylated anti-human EphA2 (R & D) was used as the detection antibody.
(§2) Results: Confluent HUVECs were stimulated with thrombin for 5 mins to induce EphA2 phosphorylation. This stimulated lysate and an unstimulated lysate were used in the antibody array experiment. The concept of this array is similar to a far-western blot. On this array, the SH2 domains of 38 signaling molecules were spotted in duplicate. Upon incubation with a lysate, each of these SH2 domains will bind to its specific, tyrosine phosphorylated protein targets. When an anti-human EphA2 antibody was used for detection, any SH2 domains that are bound to EphA2 will appear as two dots in a specific location of the membrane. Therefore, pathways activated post EphA2 phosphorylation can be identified.

[2] = target: T1, thrombin-activated EphA2 (endogenous, …); test: SH2 domain array with thrombin-stimulated HUVEC lysate, anti-EphA2 detection
Experimental: as §1, §2

Row | Binder | binding result [1] | binding result [2]
1 | SH2 domain of Crkl (other, UniProt P46109 14-102, looked up, domain: SH2 domain; also called Crk1) WYMGPVSRQEAQTRLQGQRHGMFLVRDSSTCPGDYVLSVSENSRVSHYIINSLPNRRFKIGDQEFDHLPALLEFYKIHYLDTTTLIEPA | binds | –
2 | SH2 domain of Abl1 (other, UniProt P00519 127-217, looked up, domain: SH2 domain) WYHGPVSRNAAEYLLSSGINGSFLVRESESSPGQRSISLRYEGRVYHYRINTASDGKLYVSSESRFNTLAELVHHHSTVADGLITTLHYPA | – | no binding
3 | SH2 domain of Grb14 (other, UniProt Q14449 439-535, looked up, domain: SH2 domain) WFHHKISRDEAQRLIIQQGLVDGVFLVRDSQSNPKTFVLSMSHGQKIKHFQIIPVEDDGEMFHTLDDGHTRFTDLIQLVEFYQLNKGVLPCKLKHYC | – | no binding
4 | SH2 domain of Hck (other, UniProt P08631 144-241, looked up, domain: SH2 domain) WFFKGISRKDAERQLLAPGNMLGSFMIRDSETTKGSYSLSVRDYDPRQGDTVKHYKIRTLDNGGFYISPRSTFSTLQELVDHYKKGNDGLCQKLSVPC | – | no binding
5 | SH2 domain of Lck (other, UniProt P06239 127-224, looked up, domain: SH2 domain) WFFKNLSRKDAERQLLAPGNTHGSFLIRESESTAGSFSLSVRDFDQNQGEVVKHYKIRNLDNGGFYISPRITFPGLHELVRHYTNASDGLCTRLSRPC | – | no binding
6 | SH2 domain of Lyn (other, UniProt P07948 129-226, looked up, domain: SH2 domain) WFFKDITRKDAERQLLAPGNSAGAFLIRESETLKGSFSLSVRDFDPVHGDVIKHYKIRSLDNGGYYISPRITFPCISDMIKHYQKQADGLCRRLEKAC | – | no binding
7 | SH2 domain of Matk (other, UniProt P42679 122-211, looked up, domain: SH2 domain) WFHGKISGQEAVQQLQPPEDGLFLVRESARHPGDYVLCVSFGRDVIHYRVLHRDGHLTIDEAVFFCNLMDMVEHYSKDKGAICTKLVRPK | – | no binding
8 | SH2 domain of Nck1 (other, UniProt P16333 282-376, looked up, domain: SH2 domain) WYYGKVTRHQAEMALNERGHEGDFLIRDSESSPNDFSVSLKAQGKNKHFKVQLKETVYCIGQRKFSTMEELVEHYKKAPIFTSEQGEKLYLVKHL | – | no binding
9 | SH2 domain of Nck2 (other, UniProt O43639 285-380, looked up, domain: SH2 domain) WYYGNVTRHQAECALNERGVEGDFLIRDSESSPSDFSVSLKASGKNKHFKVQLVDNVYCIGQRRFHTMDELVEHYKKAPIFTSEHGEKLYLVRALQ | – | no binding
10 | SH2 domain of RaLP (other, UniProt Q6S5L8 526-617, looked up, domain: SH2 domain) CYHGKLSRKAAESLLVKDGDFLVRESATSPGQYVLSGLQGGQAKHLLLVDPEGKVRTKDHVFDNVGHLIRYHMDNSLPIISSGSEVSLKQPV | – | no binding
11 | SH2 domain of Brdg1 (other, UniProt Q9ULZ2 177-280, looked up, domain: SH2 domain) ACFYTVSRKEATEMLQKNPSLGNMILRPGSDSRNYSITIRQEIDIPRIKHYKVMSVGQNYTIELEKPVTLPNLFSVIDYFVKETRGNLRPFICSTDENTGQEPS | – | no binding
12 | SH2 domain of SHC1 (other, UniProt P29353 488-579, looked up, domain: SH2 domain) WFHGKLSRREAEALLQLNGDFLVRESTTTPGQYVLTGLQSGQPKHLLLVDPEGVVRTKDHRFESVSHLISYHMDNHLPIISAGSELCLQQPV | – | no binding
13 | SH2 domain of SHC2 (other, UniProt P98077 487-578, looked up, domain: SH2 domain) WYHGRMSRRAAERMLRADGDFLVRDSVTNPGQYVLTGMHAGQPKHLLLVDPEGVVRTKDVLFESISHLIDHHLQNGQPIVAAESELHLRGVV | – | no binding
14 | SH2 domain of SHC3 (other, UniProt Q92529 499-590, looked up, domain: SH2 domain) WYQGEMSRKEAEGLLEKDGDFLVRKSTTNPGSFVLTGMHNGQAKHLLLVDPEGTIRTKDRVFDSISHLINHHLESSLPIVSAGSELCLQQPV | – | no binding
15 | SH2 domain of Stap2 (other, UniProt Q9UGK3 133-248, looked up, domain: SH2 domain) YMMSEVLAKEEARRALETPSCFLKVSRLEAQLLLERYPECGNLLLRPSGDGADGVSVTTRQMHNGTHVVRHYKVKREGPKYVIDVEQPFSCTSLDAVVNYFVSHTKKALVPFLLDE | – | no binding
16 | SH2 domain of TNS (other, UniProt Q9HBL0 1567-1676, looked up, domain: SH2 domain) WYKPEISREQAIALLKDQEPGAFIIRDSHSFRGAYGLAMKVSSPPPTIMQQNKKGDMTHELVRHFLIETGPRGVKLKGCPNEPNFGSLSALVYQHSIIPLALPCKLVIPN | – | no binding
17 | SH2 domain of Yes (other, UniProt P07947 158-255, looked up, domain: SH2 domain) WYFGKMGRKDAERLLLNPGNQRGIFLVRESETTKGAYSLSIRDWDEIRGDNVKHYKIRKLDNGGYYITTRAQFDTLQKLVKHYTEHADGLCHKLTTVC | – | no binding
18 | SH2 domain of Btk (other, UniProt Q06187 281-377, looked up, domain: SH2 domain) WYSKHMTRSQAEQLLKQEGKEGGFIVRDSSKAGKYTVSVFAKSTGDPQGVIRHYVVCSTPQSQYYLAEKHLFSTIPELINYHQHNSAGLISRLKYPV | – | no binding
19 | SH2 domain of Csk (other, UniProt P41240 82-171, looked up, domain: SH2 domain) WFHGKITREQAERLLYPPETGLFLVRESTNYPGDYTLCVSCDGKVEHYRIMYHASKLSIDEEVYFENLMQLVEHYTSDADGLCTRLIKPK | – | no binding
20 | SH2 domain of Eat2 (other, UniProt O14796 5-101, looked up, domain: SH2 domain) YYHGRLTKQDCETLLLKEGVDGNFLLRDSESIPGVLCLCVSFKNIVYTYRIFREKHGYYRIQTAEGSPKQVFPSLKELISKFEKPNQGMVVHLLKPI | – | no binding
21 | SH2 domain of Fes (other, UniProt P07332 460-549, looked up, domain: SH2 domain) WYHGAIPRAEVAELLVHSGDFLVRESQGKQEYVLSVLWDGLPRHFIIQSLDNLYRLEGEGFPSIPLLIDHLLSTQQPLTKKSGVVLHRAV | – | no binding
22 | SH2 domain of Fgr (other, UniProt P09769 144-241, looked up, domain: SH2 domain) WYFGKIGRKDAERQLLSPGNPQGAFLIRESETTKGAYSLSIRDWDQTRGDHVKHYKIRKLDMGGYYITTRVQFNSVQELVQHYMEVNDGLCNLLIAPC | – | no binding
23 | SH2 domain of Fyn (other, UniProt P06241 149-246, looked up, domain: SH2 domain) WYFGKLGRKDAERQLLSFGNPRGTFLIRESETTKGAYSLSIRDWDDMKGDHVKHYKIRKLDNGGYYITTRAQFETLQQLVQHYSERAAGLCCRLVVPC | – | no binding
24 | SH2 domain of Grap (other, UniProt Q13588 60-154, looked up, domain: SH2 domain) WYSGRISRQLAEEILMKRNHLGAFLIRESESSPGEFSVSVNYGDQVQHFKVLREASGKYFLWEEKFNSLNELVDFYRTTTIAKKRQIFLRDEEPL | – | no binding
